Reference: patent publication JP2013532970A, “追加のジスルフィド結合を含有するヒトインスリン” (ノヴォ ノルディスク アー/エス, priority 2010, dated 2011)

Assay: Thioflavin T (ThT) fibrillation assay
Type: physicochemical
Settings: 7 mM sodium phosphate pH 7.4, 1 μM ThT, 37℃, orbital shaking 960 rpm

Substance: A10C, B4C, desB30ヒトインスリン [実施例4]
- Fibrillation within the 45-hour experiment (ThT fluorescence) (45 h): 細線維化しなかった

Substance: ヒトインスリン: Human insulin hormone (prior art), 21-residue A chain and 30-residue B chain; used as the reference
- ThT fibrillation lag time: < 2 時間
